For two molecules, EC50 results are on record in patent publication CN114423789A (ZHEJIANG JIANMAI PHARMACEUTICAL CO LTD, dated 2022).

The term EC50 denotes the concentration giving half of the maximal effect.

Assay [1] concerns the target T1, recombinant human mesothelin (full-length extracellular domain) (human, UniProt Q13421 296-580, limits assumed).
T1 construct: extracellular domain; Bought protein coated on ELISA plates at 50 ng per well; also called 重组人间皮素; 人间皮素(MSLN)蛋白
The assay is described as follows: ELISA, recombinant human mesothelin coated at 50 ng/well, Fab detected with HRP anti-FLAG. Background: An ELISA detects its analyte on a solid surface through an enzyme-linked reagent.

In assay [2] the target is T1, recombinant human mesothelin …. Nature of the assay: ELISA, recombinant human mesothelin coated at 50 ng/well, fit to a Langmuir isotherm.

T1 sequence (Q13421 other isoform, or with tags, fused parts or gaps limits assumed): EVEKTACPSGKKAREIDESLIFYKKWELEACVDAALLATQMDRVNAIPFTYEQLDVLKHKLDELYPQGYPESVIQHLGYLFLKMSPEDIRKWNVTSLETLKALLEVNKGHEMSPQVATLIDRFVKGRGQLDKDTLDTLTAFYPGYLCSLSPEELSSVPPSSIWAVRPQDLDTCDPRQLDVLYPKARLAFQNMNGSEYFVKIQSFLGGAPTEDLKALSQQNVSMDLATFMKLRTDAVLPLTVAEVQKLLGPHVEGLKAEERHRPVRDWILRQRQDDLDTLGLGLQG

B1: M10 Fab (Fab, V domains shown)
VH: QLVETGGGLVQPGRSLRLSCAASGFTFDDYAMHWVRQAPGKGLEWVSGISWNSGSIGYADSVKGRFTISRDNAKNSLYLQMNSLRAEDTAVYYCARDSGSSGWYGYFQHWGQGTLVTVSS
VL: SYVLTQPPSVSVSPGQTARITCSGDALPKQYAFWYQQKPGQAPVLVIYKDSERPSGIPERFSGSSSGTTVTLTISGVQAEDEADYYCQSADSSATSVIFGGGTKLTVLG
notes: also called Fab克隆M10
With B1, the EC50 in assay [1] turned out to be 21 nM.

B2: M10 mAb (anti-human mesothelin monoclonal antibody IgG1) (antibody, V domains shown)
VH: QLVETGGGLVQPGRSLRLSCAASGFTFDDYAMHWVRQAPGKGLEWVSGISWNSGSIGYADSVKGRFTISRDNAKNSLYLQMNSLRAEDTAVYYCARDSGSSGWYGYFQHWGQGTLVTVSS
VL: SYVLTQPPSVSVSPGQTARITCSGDALPKQYAFWYQQKPGQAPVLVIYKDSERPSGIPERFSGSSSGTTVTLTISGVQAEDEADYYCQSADSSATSVIFGGGTKLTVLG
notes: Full human IgG1: the heavy-chain Fd of M10 Fab fused to human IgG1 Fc, about 150 kDa non-reduced; also called 抗间皮素M10 mAb; 抗间皮素单克隆抗体
Turning to B2, the EC50 in assay [2] was found to be 0.2 nM.
